Consider one substance from article PMC2889002.

The target of this assay is GST fusion of the full-length cytoplasmic loop of connexin43 (GST-CLFL) (UniProt P23242). Description: pull-down.
Sequence of UniProt P23242 (P23242 98-155): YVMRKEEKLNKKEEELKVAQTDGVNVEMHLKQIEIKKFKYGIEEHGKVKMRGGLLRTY

“β-tubulin (Tubulin β5/2c) of mouse brain (from UniProt P99024 1-444) (natural protein)” registered an affinity relative to that of Cx43-CT for β-tubulin of 0.2 fold.
